Reference: paper PMC8989513

How the values were obtained:
Test in all cases: BLI
[1] = target: C-terminally biotinylated MYC(1–88)
[2] = target: C-terminally biotinylated MYC(1–88)ΔMB0
[3] = target: MYC(1–88 F23A), C-terminally biotinylated
[4] = target: MYC(1–88 P21A), C-terminally biotinylated
[5] = target: MYC(1–88 Y22A), C-terminally biotinylated
[6] = target: MYC(1–88 Y24A), C-terminally biotinylated
[7] = target: biotinyl-MB0 peptide (MYC Box 0, aa 16–33)

B1: PNUTS(1–148), PNUTS amino-terminal domain (PAD) (domain or fragment)
chain: MGSGPIDPKELLKGLDSFLNRDGEVKSVDGISKIFSLMKEARKMVSRCTYLNILLQTRSPEILVKFIDVGGYKLLNNWLTYSKTTNNIPLLQQILLTLQHLPLTVDHLKQNNTAKLVKQLSKSSEDEELRKLASVLVSDWMAVIRSQS
Kd [1]: 3.5 µM | Kd [2]: > 100 µM | fold change of KD against wild-type MYC(1–88) [3]: > 5 fold | fold change of KD against wild-type MYC(1–88) [4]: > 5 fold | fold change of KD against wild-type MYC(1–88) [5]: > 5 fold | fold change of KD against wild-type MYC(1–88) [6]: > 5 fold | Kd [7]: 9.4 µM
